Experimental data taken from US20150125397A1, “DUAL SPECIFIC BINDING PROTEINS DIRECTED AGAINST IMMUNE CELL RECEPTORS AND AUTOANTIGENS” (ABBVIE INC., priority 2013, published 2015).

Columns and labels:
Primary murine B cells = test: CFSE dilution / Sytox Blue FACS of primary murine B cells; type: cell-based, mouse; conditions: 72 hours, FIG. 3
Description: Primary murine B cells were purified by positive selection as described above. For cultures >48 hours old, proliferation was quantified by carboxyfluorescein diacetate, succinimidyl ester (CFSE) dilution and cell death by TO-PRO-3 binding. To label the cells with CFSE, the cells were first washed 2 times with PBS. Next, the stock of CFSE was diluted to 10 μM in PBS and the cells were brought to 1×10^7 cells/ml. The cells were mixed at a 1:1 ratio with 10 μM CFSE and mixed gently for 2 minutes. The CFSE labeling reaction was stopped by adding heat inactivated fetal calf serum equal in volume to the starting volume for the cell suspension. […] Proliferation was measured by fluorophore dilution at 60-72 hours by flow cytometry. […]
Primary murine B cells were labeled and prepared as in Example 2.7 and stimulated with either media alone, […] of TLR9 ligand CpG oligodeoxynucleotide (ODN) 1826, […] of the mouse anti-chromatin autoantibody PL2-3 or […] DVD3759 in the presence or absence of […] of the B cell survival factor BLyS. After 72 hours, cells were stained with 1 μM of the cell permeable DNA stain Sytox Blue and analyzed by fluorescence activated cell sorting (FACS). Cell division was determined by dilution of CFSE and dead cells were identified by staining with Sytox Blue.

[1] = tested on: wild type (WT) primary B cells; test: CFSE dilution / TO-PRO-3 FACS of wild type B cells (Example 4); type: cell-based, mouse; conditions: 72 hours, FIG. 4
Description: Primary murine B cells were purified by positive selection as described above. For cultures >48 hours old, proliferation was quantified by carboxyfluorescein diacetate, succinimidyl ester (CFSE) dilution and cell death by TO-PRO-3 binding. To label the cells with CFSE, the cells were first washed 2 times with PBS. Next, the stock of CFSE was diluted to 10 μM in PBS and the cells were brought to 1×10^7 cells/ml. The cells were mixed at a 1:1 ratio with 10 μM CFSE and mixed gently for 2 minutes. The CFSE labeling reaction was stopped by adding heat inactivated fetal calf serum equal in volume to the starting volume for the cell suspension. The cells were washed two times with media and resuspended to 1-4×10^6 cells/ml and were incubated with 0.5 μg/ml DVD-Ig proteins (DVD3759 and DVD3754) or antibodies, with or with out 0.05 μg/ml Blys. Proliferation was measured by fluorophore dilution at 60-72 hours by flow cytometry. […]
To determine if IRAK4 kinase activity is required for activation and/or death induced TLR9 via DVD3759, either wild type (WT), IRAK2 knock out (IRAK2KO) or IRAK 4 knock-in (IRAK4 KI) primary B cells were purified and tested in a method similar to Example 2.7. […] After 72 hours, cells were stained with 500 nM of the cell permeable DNA stain TOP-RO-3 and analyzed by FACS. Cell division was determined by dilution of CFSE and dead cells were identified by staining with TOP-RO-3.

B1: DVD3759: DVD-Ig: VD1 mIgM (B7.6), SL linker, VD2 DNA(PA4); heavy SEQ ID NO 64, light 65 (antibody)
heavy: QVQLKESGPGLVKPSLTLSLTCTVSGFSLNGYGVIWVRQPPGKGLEWMGVIWGNGNTNYNSTLKSRLSISRDTSKSQVFLKMNNLQTEDTAMYFCARSENYYSSPGYFAYWGQGTLVTVSSASTKGPEVQLVESGGGLVKPGGSLKLSCVASGFTFSTYAMSWVRQTPTKRLEWVATISRGGVSTYYPDTVKGRFTISRDNAKNTLYLQMSSLRSEDTAMYYCARPPTIVTTWFAYWGQGTLVTVSS
light: NTVMTQSPTSMFISVGDRVTMNCKASQNVGSDVDWYQQKTGQSPKLLISGTSNRYTGVPDRFTGSGSGTDFTLTISNMQAEDLAVYYCLQYNYNPTFGAGTKLELKRTVAAPSVFIFPPDVVMTQTPLSLPVSLGDQASISCRSSQSLVHSNGNTYLHWYLQKPGQSPKLLIYKVSNRFSGVPDRFSGSGSGTDFTLKISRVEAEDLGAYFCSQSTHVPYTFGGPTRLEIKR
Primary murine B cells; 0.05 mg/ml BLyS
  effect of addition of BLyS on cell death: could be rescued
Primary murine B cells; absence of BLyS
  cell division (CFSE dilution) and cell death (Sytox Blue): induced several rounds of division followed by post-proliferative cell death
[1]; 0.05 μg/ml BLyS
  effect of addition of BLyS on cell death: could be rescued
[1]; 0.5 μg/ml
  cell division (CFSE dilution) and cell death (TO-PRO-3): induced several rounds of division followed by post-proliferative cell death
